Where two headings read alike, the source gives them in different places.
What was measured:
[1] = system: Messa10K cells; details: for efficiency of SIN vectors versus wt vectors / plateau of maximum mortality: gemcitabine; for efficiency of SIN vectors versus wt vectors: Messa 10K, data not shown
Experimental: Methods to measure sensitivity of a cell, such as a eukaryotic cell are known to the skilled in the art. In one example, cells were transduced with a vector comprising for example the mutant “M36” or the wild-type hdCK. Therefore, 1×10^6 cells were contacted with 1 ml of 1:5 diluted viral vectors rescued from the isolated clones. Transduced cells were selected, for example, by adding puromycin 24 h after transduction using 0.6 μg/ml to HEK-293T cells, 0.6 μg/ml to HEK-293T-CD4^+ cells, 0.5 μg/ml to Messa10K cells. The transduced cells were then for example seeded at 5,000 cells per well in a 96-well plate and grown overnight at 37° C. Typically, two rows were used for each population. 12 h after seeding, increasing concentrations of for example gemcitabine (0-400 nM or […]), or araC (0-10 mM) were added to each well and left in culture for further 72 h. Cell viability was measured by MTT test (CellTiter 96 Non-Radioactive Cell Proliferation Assay, Promega) and the number of living cells in each well was evaluated by measuring the OD at 570 nm. For each population, the fraction of living cells was calculated as OD570 concentration X Gem/OD570 concentration 0 Gem, to estimate the sensitivity of the population to the prodrug.
Tests of sensitivity to anticancer drugs. Cells were seeded at 5000 cells per well in a 96-well plate and grown overnight at 37° C. Two rows were used for each population. 12 h after seeding, increasing concentrations of Gemcitabine (0-400 nM or 0-100 μM), or AraC (0-10 mM) were added to each well and left in culture for further 72 h. Cell viability was measured by MTT test (CellTiter 96 Non-Radioactive Cell Proliferation Assay, Promega) and the number of living cells in each well was evaluated by measuring the OD at 570 nm. For each population, the fraction of alive cells was calculated as OD570 concentration X Gem/OD570 concentration 0 Gem, to estimate the sensitivity of the population to the prodrug. Tests of sensitivity to antiviral drugs. Viral vectors were generated by transfection of HEK-293T cells with 10 μg of pCMVAR8.91 plasmid, 5 μg of pHCMV-G plasmid, and 10 μg of genomic plasmid SDY-dCK (described in Rossolillo et al. 2012) encoding either for the wild type sequence of the human dCK or the M36 variant. Transduction was performed on 1×10^6 HEK-293T-CD4+ cells with viral vectors. Transduced cells were selected in the presence of 0.6 μg/ml of puromycin, added 24 h after transduction. 50 to 200 individual puromycin-resistant clones were pooled and expanded obtaining the polyclonal wt-dCK cell population (wtdCK-pcP, for wt dCK polyclonal population) and the […] cell population (M36-pcP). Vectors for challenging infection in the presence of antiviral drugs were generated by transfection with 10 μg of pTopo plasmid encoding for the HIV envelope ADA (ref, plus Hamoudi 2013), 5 μg of pHCMV-G plasmid, and 10 μg of genomic plasmid SDY-Luc, which is a variant of the pSDY plasmid encoding for the firefly luciferase. These viruses were used to transduce 1×10^6 HEK-293T-CD4+-wtdCK or HEK-293T-CD4+-M36 cells. Viral infection was then monitored 48 hours after transduction. For this the medium was removed, the cells were washed twice in PBS, lysed, centrifuged, and the supernatant was used to measure luciferase activity according to the manufacturer's protocol (Promega, Fitchburg, Wis., USA) with a Glomax luminometer (Promega, Fitchburg, Wis., USA). Western blot analyses. Messa10K cell lines expressing either the wt dCK or M36, both in the context of a proviral DNA with functional LTR or with an inactivated LTR were lysed in 1×RIPA buffer, and 30, 60, 120 μg of total protein (evaluated by Bradford) for each cell type and loaded on a 12% bis-tricine gel (Invitrogen).

[2] = system: Messa10K cells; details: cited from earlier work
[3] = target: T1, human dCK (Homo sapiens, UniProt P27707, E171K/E247K/L249M); details: cited from earlier work
T1 construct: His tag (C, cleaved yes); made in house; host or cells: E. coli BL21 DE3 pLysE (pET14b)

[4] = system: HIV-derived vectors in HEK 293T/CD4+ cells; test: Tests of sensitivity to antiviral drugs: infection of hdCK-transduced cells by luciferase-encoding HIV-derived vectors; type: cell-based; details: luciferase 48 hours after infection
Experimental: (§1) Tests of sensitivity to anticancer drugs. […] Two rows were used for each population. […] Tests of sensitivity to antiviral drugs. […] Viral infection was then monitored 48 hours after transduction. […] Western blot analyses. […] Production and purification of recombinant dCK proteins. […] Phosphorylation tests in vitro. […] ATP was 4 mM. All experiments were performed in triplicate.
Firstly HEK 293T/CD4^+ cells were transduced at a low MOI of by the vector encoding the M36 variant and selection of the successfully transduced cells was performed using puromycin. The selected cell line was then transduced with lentiviral vectors, as described in Materials and Methods, encoding the luciferase gene and luciferase levels ere measured 48 hours after infection. A comparison with the level of luciferase detected in the parallel infection of control HEK 293T/CD4^+ cells expressing as a transgene the wt dCK gene was performed and the data plotted.

[5] = target: T2, human dCK (Homo sapiens, UniProt P27707, E171K/E247K/L249M/S169N); test: Phosphorylation tests in vitro (NADH-based assay) with purified recombinant dCK proteins; type: biochemical; details: for Km compared to wt dCK / Kcat relative to wt dCK: FIG. 9A
T2 construct: His tag (C, cleaved yes); made in house; host or cells: E. coli BL21 DE3 pLysE (pET14b)
Experimental: (§2) Methods to qualitatively and/or quantitatively evaluate phosphorylation of a compound, such as a nucleoside compound, are known to the skilled in the art. In one example, the efficiency of phosphorylation of a substrate such as the natural substrate deoxycytidine, or the prodrugs gemcitabine and AraC, is measured for example with the purified wild-type hdCK and the mutant “M36” in typically a NADH-based assay as described in (Agarwal K C. et al. 1978 Methods Enzymol 51: 483-490). Accordingly, the enzymes are typically assayed at, for example, room temperature at a concentration of 0.45 μM for dC, 0.3 μM for Gemcitabine, and 0.3 for AraC. dC is typically used at concentrations of 5 to 50 μM, Gemcitabine at concentrations of 20 μM to 1 mM, and araC is typically used at concentrations of 20μM to 0.5 mM. ATP is used typically at 4 mM.
as §1
(§3) To characterise its biochemical properties M36 and, as a control, the wt dCK protein, were produced as recombinant, C-ter His tagged proteins in E. coli, purified and tested for their efficiency of phosphorylation in vitro. As it was the case for the G12 mutant (Rossolillo et al. 2012) also for M36 the substitutions present in the mutant led to a decrease in the Vmax of phosphorylation as function of the concentration of substrate, for both dC and for gemcitabine, but while the decrease is dramatic for the dC it is only modest for gemcitabine (FIGS. 8A-B).

[6] = system: human dCK; test: as above; type: biochemical; details: FIG. 9B, G12 values from Rossolillo et al. 2012
Experimental: as §2, §1, §3

T2 sequence (P27707 whole entry S169N/E171K/E247K/L249M): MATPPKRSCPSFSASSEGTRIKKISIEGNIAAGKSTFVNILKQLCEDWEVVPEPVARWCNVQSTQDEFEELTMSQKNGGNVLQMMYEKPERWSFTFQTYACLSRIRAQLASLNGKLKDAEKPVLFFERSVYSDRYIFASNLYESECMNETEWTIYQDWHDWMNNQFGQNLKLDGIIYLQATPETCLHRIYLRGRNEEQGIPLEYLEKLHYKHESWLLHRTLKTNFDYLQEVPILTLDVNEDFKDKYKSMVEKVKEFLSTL
T1 sequence (P27707 whole entry E171K/E247K/L249M): as the sequence (P27707 whole entry S169N/E171K/E247K/L249M) above, with N169S counted along it

Substance: G12: hdCK mutant comprising three mutations, Glu171Lys, Glu247Lys and Leu249Met, described in Rossolillo et al. 2012 and WO2011/058081
- efficiency of SIN vectors versus wt vectors [1]: more efficient
- sensitization to gemcitabine ([2]; cells originally resistant to gemcitabine (Messa10K)): 300 fold
- sensitization effect relative to the one induced with the wild-type enzyme ([2]; gemcitabine, Messa10K): 60 times
- ability to phosphorylate dC with respect to the wild type enzyme ([3]; substrate dC): almost complete loss of ability
- efficiency of phosphorylation of gemcitabine with respect to the wild type enzyme ([3]; substrate gemcitabine): almost unaltered

Substance: M36: mutant human deoxycytidine kinase (hdCK) with mutations S169N, E171K, E247K and L249M; delivered as lentiviral transgene or recombinant protein
- sensitisation to AraC with respect to control cells expressing exogenous wt dCK ([1]; AraC, FIG. 7B): strong sensitisation
- sensitisation phenotype to gemcitabine compared to G12 ([1]; Messa10K, FIG. 1 and 2): further improved sensitisation phenotype
- sensitization to gemcitabine ([1]; cells originally resistant to gemcitabine): 900 fold
- sensitization of cells to cytarabine (AraC), factor ([1]; cytarabine (AraC)): 10,000
- sensitisation of Messa 10K cells to fludarabine ([1]; fludarabine, FIG. 7A): no significant sensitisation
- efficiency of SIN vectors versus wt vectors [1]: more efficient
- plateau of maximum mortality ([1]; SIN vector (inactivated LTR)): 80%
- plateau of maximum mortality ([1]; wt LTR vector): 60%
- lower infectivity versus cells expressing wt dCK ([4]; 3TC, FIG. 6): ~2 fold
- resistance to infection versus cells expressing wt dCK ([4]; ddC, FIG. 5): no significant increase in resistance
- Km compared to wt dCK ([5]; natural substrate dC): reversed
- reduction of the Vmax of phosphorylation compared to wt dCK ([5]; substrate AraC, FIG. 8C): very modest reduction
- Kcat relative to wt dCK ([5]; substrate AraC): approximately 50%
- Km compared to wt dCK ([5]; substrate AraC): increased
- decrease in the Vmax of phosphorylation compared to wt dCK ([5]; substrate dC, FIG. 8A): dramatic
- Kcat relative to wt dCK ([5]; substrate dC): approximately 50%
- decrease in the Vmax of phosphorylation compared to wt dCK ([5]; substrate gemcitabine, FIG. 8B): only modest
- Kcat relative to wt dCK ([5]; substrate gemcitabine): approximately 50%
- Km compared to wt dCK ([5]; substrate gemcitabine): increased
- increase in Kcat M36 vs G12, factor ([6]; natural substrate dC): 9.5
- increase in Km M36 vs G12, factor ([6]; natural substrate dC): 3.5
- ratio of Kcat M36 vs G12 ([6]; substrate gemcitabine): 1
- ratio of Km M36 vs G12 ([6]; substrate gemcitabine): 1

Reference: US20180112194A1, “MUTANT HUMAN DEOXYCYTIDINE KINASE” (Centre National De La Recherche Scientifique, priority 2015, published 2018)
